For 2 molecules, Ki results are on record in US20220143196A1 (ARIZONA BOARD OF REGENTS ON BEHALF OF THE UNIVERSITY OF …, published 2022).

For assay [1], the target named is T1, human melanocortin 1 receptor (MC1R) (human, UniProt Q01726 1-317).
T1 construct: whole, on cells; also called MC1 receptor
The assay can be described thus: competitive binding vs 125I-NDP-α-MSH on whole HEK293 cells overexpressing human MC1R.
Procedure: (§1) Competitive binding assays were performed on whole cells. Stably transfected HEK293 cell lines overexpressing human MC1R, MC3R, MC4R or MC5R were seeded on 96-well plates 48 h before the assay and grown to 100,000 cells per well. For the assay, the medium was removed, and cells were washed twice with a binding buffer containing minimum essential medium with Earle's salt (MEM, GIBCO), 25 mM HEPES (pH 7.4), 0.2% bovine serum albumin, 1 mM 1,10-phenanthrolone, 0.5 mg/L leupeptin and 200 mg/L bacitracin. […] The medium was subsequently removed, and the cells were washed twice with the binding buffer. The cells were lysed by 50 μL of 0.1 mM NaOH and 50 μL of 1% Triton X-100. The plates were left dry overnight under the hood, and 50 μL of scintillation fluid (OptiPhase SuperMix, PerkinElmer) were added in each well. The radioactivity was measured using MicroBeta 2 microplate counter (PerkinElmer). Data were analyzed using Graphpad Prism 6 (Graphpad Software, San Diego, Calif.).

Assay [2] addresses T2, human MC4R (human, UniProt P32245 1-332).
T2 construct: whole, on cells
Briefly: competitive binding vs 125I-NDP-α-MSH on whole HEK293 cells overexpressing human MC4R.
Procedure: as §1

Assay [3] concerns the target T3, human MC3R (human, UniProt P41968 1-323).
T3 construct: whole, on cells
The assay can be described thus: competitive binding vs 125I-NDP-α-MSH on whole HEK293 cells overexpressing human MC3R.
Procedure: as §1

In assay [4] the target is T4, human MC5R (human, UniProt P33032 1-325).
T4 construct: whole, on cells
T4 sequence (P33032 whole entry): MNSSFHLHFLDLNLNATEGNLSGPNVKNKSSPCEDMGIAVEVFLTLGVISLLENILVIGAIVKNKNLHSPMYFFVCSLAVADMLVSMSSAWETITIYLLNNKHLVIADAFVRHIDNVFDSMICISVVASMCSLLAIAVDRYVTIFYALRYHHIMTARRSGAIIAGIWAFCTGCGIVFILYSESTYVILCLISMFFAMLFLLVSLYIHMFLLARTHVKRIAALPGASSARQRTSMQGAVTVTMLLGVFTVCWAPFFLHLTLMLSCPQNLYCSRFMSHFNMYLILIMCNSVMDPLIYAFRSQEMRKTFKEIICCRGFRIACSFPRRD
Briefly: competitive binding vs 125I-NDP-α-MSH on whole HEK293 cells overexpressing human MC5R.
Procedure: as §1

T1 sequence (Q01726 whole entry): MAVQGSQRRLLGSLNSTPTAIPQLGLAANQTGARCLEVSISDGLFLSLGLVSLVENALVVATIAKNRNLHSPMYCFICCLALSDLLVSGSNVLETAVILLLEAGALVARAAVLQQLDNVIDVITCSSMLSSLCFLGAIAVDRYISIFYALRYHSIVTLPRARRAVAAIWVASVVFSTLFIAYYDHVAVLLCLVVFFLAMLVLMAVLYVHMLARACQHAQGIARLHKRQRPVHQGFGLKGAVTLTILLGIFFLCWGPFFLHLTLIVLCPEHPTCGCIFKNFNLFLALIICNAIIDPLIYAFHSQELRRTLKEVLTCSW
T3 sequence (P41968 whole entry): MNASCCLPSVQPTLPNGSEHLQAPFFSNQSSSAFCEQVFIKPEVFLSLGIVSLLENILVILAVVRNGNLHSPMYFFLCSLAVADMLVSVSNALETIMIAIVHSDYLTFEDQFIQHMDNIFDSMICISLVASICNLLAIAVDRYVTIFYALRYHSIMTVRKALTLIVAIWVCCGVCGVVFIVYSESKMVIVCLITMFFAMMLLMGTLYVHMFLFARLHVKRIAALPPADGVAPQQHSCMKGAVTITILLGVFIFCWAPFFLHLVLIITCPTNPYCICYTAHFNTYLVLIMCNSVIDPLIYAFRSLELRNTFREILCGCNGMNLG
T2 sequence (P32245 whole entry): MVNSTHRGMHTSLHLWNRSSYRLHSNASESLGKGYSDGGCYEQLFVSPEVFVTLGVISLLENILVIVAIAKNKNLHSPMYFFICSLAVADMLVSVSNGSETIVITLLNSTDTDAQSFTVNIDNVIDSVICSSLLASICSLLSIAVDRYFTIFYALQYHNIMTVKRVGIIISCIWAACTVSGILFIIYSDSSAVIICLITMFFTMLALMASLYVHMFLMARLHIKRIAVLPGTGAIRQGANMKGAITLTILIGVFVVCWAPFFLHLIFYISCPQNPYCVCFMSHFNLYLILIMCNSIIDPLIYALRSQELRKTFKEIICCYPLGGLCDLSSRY

B1: fluorescein-MT-II conjugate (2) (peptide)
peptide: CXLDHFRWK
modifications: not fully specified; Cys 1 thiol joined by a disulfide to a 2-thioethyl carbonate linker carrying fluorescein; 6-aminohexanoic acid (6-Ahx) at 2; Nle at 3; D-Phe at 6; lactam cyclization between Asp 4 and Lys 9 side chains; C-terminal amide; no N-terminal acetyl on Nle (replaced by the Cys-6-Ahx spacer)
notes: also called fluorescein-MT-II (2); compound 2
In the case of B1, the Ki (commonly the equilibrium dissociation constant of an inhibitor or competing ligand from its target) in assay [1] was 172 nM.

B2: camptothecin (CPT)-MT-II conjugate (1) (peptide)
peptide: CXLDHFRWK
modifications: not fully specified; Cys 1 thiol joined by a disulfide to a 2-thioethyl carbonate linker carrying camptothecin; 6-aminohexanoic acid (6-Ahx) at 2; Nle at 3; D-Phe at 6; lactam cyclization between Asp 4 and Lys 9 side chains; C-terminal amide; no N-terminal acetyl on Nle (replaced by the Cys-6-Ahx spacer)
notes: also called CPT-MT-II (1); camptothecin-MT-II (1)
With B2, the inhibitory constant (Ki) was 57 nM in assay [1], 173 nM in assay [2], 300 nM in assay [3] and 194 nM in assay [4].
